Data as given in patent US11945858B2, “Antibodies and antibody fragments against HNAV1.7 channel and their use in pain and cancer indications” (NATIONAL RESEARCH COUNCIL OF CANADA, priority 2018, dated 2024).
“And” between values parts separate entries of the source, which are not always exact repeats. Equal entries are not always repeated. “Also recorded” adds a separate entry of the source.

B1: 1G5: mouse mAb IgG1, k binding both FC5 and DIE3IR, no effect on hNav1.7 currents; negative control; SEQ ID NO: 21 and 27 (antibody, V domains shown)
VH: QVQLQQPGAELVKPGASVKLSCKASGYTFTSYWINWVKQRPGQGLEWIGNIYPGNSNTNYNEKFKSKATLTVDKSSSTAYMQLSSLTSEDSAVYYCARRYYYDYDDAMDYWGQGTSVTVSSAKTTPPSVYPLAP
VL: DIVLTQSPASLAVSLGQRATISCRASESVDSYGNGFMHWYQQKPGQPPKLLIYRASNLESGIPARVSGSGSRTDFTLTINPVEADDVATYYCQQSNEDPWTFGGGTKLEIKRADAAPTVSIFPPSS
modifications: Heavy chain of the 1G5 and 1G9 antibodies without leader sequence; Light chain of the 1G5 and 1G9 antibodies without leader sequence

Legend:
[1] = system: lung metastasis of prostate cancer; conditions: rat, in vivo; cited from earlier work
glioblastoma U87MG cells = assay: Soft agar assay, U87MG
[2] = system: ovarian cancer SKOV-3 cells; assay: Soft agar assay, SKOV-3
[3] = system: glioblastoma U87MGvIII cells; assay: Soft agar assay, U87MGvIII
CHO-3E7 = assay: Cell-ELISA on live CHO-3E7 cells; assay type: cell-based, Chinese hamster; conditions: hybridoma supernatant; OD450 nm; duplicate 1
Protocol: Cell-ELISA. Sterile 96-well plates (Costar #3595) were pre-treated with 50 μl/well of branched polyethyleneimine (PEI, Sigma Cat #408727) at 25 μg/ml in PBS for 30 min at room temperature. PEI was removed and CHO-3E7 or hNAv1.7-CHO (ChanTest cat #CT4003) were seeded at 6×10^5 cells per well in FreeStyle F17 Expression Medium (Gibco Cat #A1383501) and incubated overnight at 37° C., 5% CO2. Microplates were blocked with Starting block (Thermofisher Cat #37538) for 30 min at room temperature, and 50 μl of hybridoma supernatants were added and incubated at 4° C. for 3 h. Plates were washed 5 times with PBS and incubated for one hour at 4° C. with 50 μl of secondary antibody HRP-conjugated F(ab′)2 goat anti-mouse IgG (H+L) (Jackson Immunoresearch #115-036-062) diluted 1/5000 in blocking buffer. After 10 washes with PBS, 50 μl of TMB substrate solution (Pierce Cat #34021) was added and further incubated for 60 min at room temperature. Twenty-five μl/well of stop solution ([…] 1M) was added and OD450 nm measurements were done using a microplate reader (Spectramax 340 PC, Molecular Devices).

FC5DIE3IR [4] = molecular target: T1, FC5DIE3IR (Homo sapiens, UniProt Q15858); assay: Evaluation of apparent affinity of purified mAbs in ELISA; assay type: binding; conditions: purified mAb, OD 405 nm
T1 construct: The supernatant was collected and loaded on a 5 ml MabSelect™ SuRe™ column; made in house; host or cells: CHO-3E7 (transient, pTT5 vector), purified from supernatant
Protocol: Screening. Hybridoma supernatants were screened by ELISA to detect specific binders. To this end, 96-well half-area plates (Costar #3690) were coated with 25 μl of FC5DIE3IR or FC5-VHH or FC5-hFc-1X0 at 5 μg/ml in PBS and incubated overnight at 4° C. Microplates were washed 3 times with PBS, blocked with PBS-BSA 1%, and 25 μl of hybridoma supernatants were added and incubated at 37° C., 5% CO2 for 2 hours. Plates were washed 4 times with PBS-Tween 20 0.05% and incubated for one hour at 37° C., 5% CO2 with 25 μl of secondary antibody alkaline phosphatase conjugated F(ab′)2 goat anti-mouse IgG Fc-gamma specific (Jackson Immunoresearch #115-056-071) diluted 1/3000 in blocking buffer. After 4 washes with PBS-Tween 20 0.05%, 25 μl of a 1 mg/ml pNPP substrate solution was added and further incubated for one hour at 37° C. OD405 nm measurements were done using a microplate reader (Spectramax 340 PC, Molecular Devices).
Evaluation of apparent affinity in ELISA. Purified antibodies were assessed for their binding activity by ELISA in a dose-dependent binding curve. […] The data were analyzed with GraphPad Prism software using one-site specific binding-with Hill slope non-linear regression curve fit model to determine Bmax (maximum specific binding) and Kdapp (concentration needed to achieve a half-maximum binding at equilibrium) for each mAb tested. […]

hNav1.7 channels = hNav1.7 channels (Homo sapiens, UniProt Q15858, W1161R); assay: Patch-clamp whole-cell recordings in hNav1.7-HEK293 cells; assay type: cell-based; conditions: example recordings; 1-3 μM
FC5DIE3IR [5] = molecular target: T1, FC5DIE3IR; assay: Surface Plasmon Resonance of mAbs, FC5DIE3IR; assay type: binding; conditions: Fc-captured mAb, FC5-DIE3IR flowed; SCK; 25 °C
Protocol: (§1) Surface Plasmon Resonance of mAbs. FC5 and FC5DIE3IR proteins were SEC purified using a Superdex 75 column (GE Healthcare) connected to an AKTAPurifier (GE Healthcare) in HBS-EP+ running buffer (10 mM HEPES, pH 7.4, containing 150 mM NaCl, 3 mM EDTA and 0.05% P20) at a flow rate of 1 ml/min. Monomeric eluted peaks were used to flow over Fc-capture 3A8 mAb surfaces. To prepare the 3A8 mAb surfaces, approximately 6000 RUs of anti-mouse IgG (GE Healthcare) was first immobilized on CM5 Series S sensor chips (GE Healthcare) at pH 5.0, using standard amine coupling methods previously reported (Hussack et al., 2011) and according to the manufacturer's instructions (GE Healthcare). HBS-EP running buffer used for SPR experiments. The mAb 3A8 was captured on the anti-mouse IgG surface using 10 μg/ml of mAb, 30 sec contact time and flow rate of 10 μl/min. IMAC-purified DI-D VHH was passed through a Superdex 75 (GE Healthcare) column for SEC purification in HBS-EP buffer (10 mM HEPES, pH 7.4, containing 150 mM NaCl, 3 mM EDTA and 0.005% P20), connected to an AKTAPurifier (GE Healthcare) at a flow rate of 1 ml/min. Test binding experiments of FC5 control and FC5DIE3IR involved flowing 1 μM concentrations of SEC-pure material over the mAb surface at a flow rate of 30 μl/min for 5 min. Surfaces could be regenerated using 10 mM glycine, pH 1.7, with a 120 sec pulse at 20 μl/min. All SPR experiments were evaluated with Biacore T200 Software v 3.0. For kinetic analysis, single cycle kinetic analysis was used by flowing a range of FC5DIE3IR concentrations (320 nM-20 nM) at a flow rate of 30 μl/min, with 600 sec contact time and 1200 sec dissociation. Regeneration conditions were the same as above. Data were fit to a 1:1 binding model and analyzed using the Biacore T200 Software v3.0.
(§2) Surfaces were regenerated by washing with running buffer (HBS-EP). Data were analyzed with BIAevaluation 4.1 software as described (Hussack et al., 2011) and affinities determined using the steady state binding model.
(§3) Surface Plasmon Resonance (SPR) for monoclonal antibodies.

VHH FC5 = assay: Surface Plasmon Resonance of mAbs, FC5 control; assay type: binding; conditions: 25 °C
VHH FC5, sequence (as listed by the source): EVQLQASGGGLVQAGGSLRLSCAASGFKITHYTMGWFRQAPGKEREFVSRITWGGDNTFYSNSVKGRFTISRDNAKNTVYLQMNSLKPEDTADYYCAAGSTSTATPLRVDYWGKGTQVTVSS
Protocol: as §1, §2, §3

FC5DIE3IR [6] = molecular target: T1, FC5DIE3IR; assay: Hydrogen-Deuterium Exchange Mass Spectrometry (HDX-MS); assay type: binding; conditions: labelling 1, 10 and 60 min

Molecule | Reduction of the number of lung metastasis [1] [%] | Reduction of colony formation (glioblastoma U87MG cells) | Reduction of colony formation [2] [%] | Reduction of colony formation [3] [%] | ELISA on live cells (duplicates) CHO-3E7 (CHO-3E7) | Bmax (maximum specific binding) (FC5DIE3IR [4]) | Effect on hNav1.7 currents (in words) (hNav1.7 channels) | ka (FC5DIE3IR [5]) [M⁻¹ s⁻¹] | kd (FC5DIE3IR [5]) [s⁻¹] | Binding to FC5 control (comment, in words) (VHH FC5; SPR) | ka (VHH FC5; target FC5) [M⁻¹ s⁻¹] | kd (VHH FC5; target FC5) [s⁻¹] | Stabilization of FC5DIE3IR in response to mAb binding (residues, differential HDX-MS) (FC5DIE3IR [6])
NC1=N[C@H](O)[C@H]2[C@H]3O[C@]4(O)O[C@@H]([C@@H](O)[C@@]2(N1)[C@@H]4O)[C@]3(O)CO [TTX, tetrodotoxin, reference compound] | > 40 | 75% and 84% | 70 | 55 |  |  |  |  |  |  |  |  | 
B1 |  |  |  |  | 0.008 | 1.7 | no effect; also recorded: did not reduce hNav1.7 currents | 72900 | 0.0136 | Binding to both | 289000 | 0.017 | no effect on conformational stability
